Measurements published in the supplement of paper PMC10724198.
± gives the standard deviation of the averaged measurements.

tested on: Saccharomyces cerevisiae; assay: protein stability index of tFT-peptide fusion (C-terminal peptide) (PSI (0-1 scale)); higher = more stable (slower turnover); conditions: genetic background: wild type; temperature: 30 C
Experimental: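 Multiplexed protein stability (MPS) profiling in S. cerevisiae. Random 12-aa peptides (tFT-X12 library) are fused to the C-terminus of a sfGFP-mCherry tandem fluorescent timer, after mCherry and a GGGS linker. Cells are FACS-sorted into 8 mCherry/sfGFP bins and deep-sequenced. The protein stability index (PSI) is the read-weighted bin average, scaled from 0 (unstable) to 1 (stable). Only peptides with >10 reads are reported; cells were grown at 30 °C in SC-His with glucose.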
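Also: PSI is a weighted mean of sequencing reads over stability bins, variants kept only with over 10 reads, mCherry proximal and sfGFP distal, peptide attached via GGGS linker.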

| Sequence | protein stability index |
| --- | --- |
| GVWCDIVLPGVM | 0.704 ± 0.052 |
| GVWFWRLKGEGN | 0.713 ± 0.045 |
| GVWGGVGGWGVA | 0.697 ± 0.053 |
| GVWTRTWSLQWI | 0.561 ± 0.015 |
| GWGCCWSVAWTF | 0.614 ± 0.026 |
| GWGGSTLRGVRR | 0.719 ± 0.03 |
| GWRACGRGLVGK | 0.712 ± 0.011 |
| GWRGGCRSGVPE | 0.665 ± 0.064 |
| GWRVSQVLGGDR | 0.741 ± 0.042 |
| GWRVVWAVCGHF | 0.597 ± 0.092 |
| GWSLDYGSTGDR | 0.812 ± 0.018 |
| GWSSSCTATRSA | 0.743 ± 0.045 |
| GWSWGGVRTGSC | 0.841 ± 0.092 |
| GWVNKQVVTEAH | 0.728 ± 0.085 |
| GWVPDGCVGSIG | 0.653 ± 0.069 |
| GWVREAVGFRGG | 0.687 ± 0.028 |
| GWVVGGGRLGVV | 0.723 ± 0.095 |
| GWVVGRGRLGVV | 0.655 ± 0.028 |
| GYDEREKPVLLR | 0.753 ± 0.042 |
| GYEDTLKKILEI | 0.673 ± 0.099 |
| GYGNQLILAISN | 0.576 ± 0.021 |
| GYGRLVSSQSFR | 0.888 ± 0.16 |
| GYKLSIQGYNRK | 0.675 ± 0.014 |
| GYLFLGNMTRHN | 0.737 ± 0.016 |
| GYLLGCGCGWSG | 0.621 ± 0.034 |
| GYRKREMRGELQ | 0.678 ± 0.038 |

| Sequence | protein stability index |
| --- | --- |
| GYSYTEFPPEAV | 0.708 ± 0.08 |
| HAPFPPLLVSSL | 0.625 ± 0.022 |
| HATFLPGLLTIS | 0.566 ± 0.026 |
| HDPPPPPPLPRP | 0.626 ± 0.024 |
| HDSAGVCFHYWL | 0.644 ± 0.011 |
| HEGPGTTEFLGL | 0.717 ± 0.059 |
| HFAMCSTTFVIT | 0.618 ± 0.029 |
| HFLVGPLSPLLS | 0.662 ± 0.019 |
| HGFSRFAACNGV | 0.666 ± 0.0071 |
| HGLDPRRGPSGA | 0.68426 ± 0.00044 |
| HGQGWRPTYLSI | 0.796 ± 0.1 |
| HGRGVEYGVCDN | 0.6776 ± 0.0066 |
| HIAKQSSRRRRR | 0.68 ± 0.029 |
| HICFPALKPGGA | 0.6401 ± 0.0039 |
| HIWQEADGMDTE | 0.679 ± 0.022 |
| HKAPLLQLTADM | 0.662 ± 0.028 |
| HKGKELTNNAML | 0.678 ± 0.039 |
| HKHDAVIIGREC | 0.7024 ± 0.0042 |
| HKKATRPPTGGN | 0.604 ± 0.052 |
| HLAHVCYEVPTY | 0.568 ± 0.04 |
| HLFSLGSCLSDP | 0.731 ± 0.12 |
| HLGVLDSFLAEG | 0.629 ± 0.028 |
| HLIVPESVVHDL | 0.747 ± 0.18 |
| HLLGYSLRREFL | 0.67 ± 0.054 |
| HLPPSRPSFSAP | 0.747 ± 0.015 |
| HLPSHPSLPPAP | 0.707 ± 0.029 |

| Sequence | protein stability index |
| --- | --- |
| HLSHVLLGITFV | 0.603 ± 0.026 |
| HLSPAPPPPSAP | 0.706 ± 0.11 |
| HLTCVVGRDLGI | 0.606 ± 0.015 |
| HMHTSKTFSNGP | 0.738 ± 0.093 |
| HNSTKTQSLRGT | 0.719 ± 0.016 |
| HPPHPPPLPGSP | 0.802 ± 0.076 |
| HPPHPPPSPCPP | 0.733 ± 0.034 |
| HPPPARSPPSLP | 0.741 ± 0.041 |
| HPPPFRSIPEPQ | 0.678 ± 0.019 |
| HPPVFFSPCGIL | 0.634 ± 0.033 |
| HPSARLPENRTP | 0.677 ± 0.038 |
| HPSPLHLPSPPP | 0.675 ± 0.0076 |
| HPTFARIPPIPP | 0.525 ± 0.0088 |
| HPTHTPPSTHRD | 0.7316 ± 0.0053 |
| HPTLPPHPPPHP | 0.768 ± 0.036 |
| HPTRHPPTPPCY | 0.704 ± 0.018 |
| HQCVNLNTIKWV | 0.634 ± 0.021 |
| HQVSLVLGGYLL | 0.702 ± 0.0099 |
| HRCQRGLIARPR | 0.665 ± 0.016 |
| HRGAVRGGSEIW | 0.729 ± 0.033 |
| HRTKRPKTKRPP | 0.628 ± 0.036 |
| HRYRWPGLNSRL | 0.837 ± 0.12 |
| HSFNITSESQKI | 0.653 ± 0.0066 |
| HSLPPLRPYPSP | 0.7553 ± 0.00076 |
| HSLRLPPSVHFP | 0.6797 ± 0.004 |
| HSLRPPPPPAPT | 0.7146 ± 0.0045 |

| Sequence | protein stability index |
| --- | --- |
| HSNGADTFSEGE | 0.648 ± 0.033 |
| HSPILQPSLPHP | 0.71 ± 0.022 |
| HSPPRPPFHPRF | 0.70091 ± 0.0004 |
| HSRPAAPCRSPL | 0.679 ± 0.013 |
| HSRRCDGLPGWV | 0.671 ± 0.03 |
| HSTGPRPKLGCQ | 0.827 ± 0.019 |
| HSYMFIRNTIRI | 0.6281 ± 0.0031 |
| HSYSPRSLLVDP | 0.727 ± 0.039 |
| HTGKAATRKVIK | 0.634 ± 0.024 |
| HTKNCTRAVSDR | 0.673 ± 0.085 |
| HTPPLPPPPDPT | 0.723 ± 0.061 |
| HTPPPPRHPYKH | 0.741 ± 0.055 |
| HVGEVESGGMGG | 0.707 ± 0.03 |
| HVLFPLHPNRIP | 0.6609 ± 0.0016 |
| HVMLPFTGIGKF | 0.672 ± 0.06 |
| HVNGQWEANRRT | 0.697 ± 0.048 |
| HVPQPNTVCPHL | 0.754 ± 0.033 |
| HVTRGMTHLTLF | 0.635 ± 0.036 |
| HVTSTRGARRPS | 0.715 ± 0.019 |
| HVVSSGFLVGLG | 0.671 ± 0.039 |
| HWSMRVNRTEGG | 0.663 ± 0.055 |
| HWYFARTSTVSC | 0.5505 ± 0.0015 |
| HYLYSLLVLPPL | 0.658 ± 0.046 |
| IAATTVVRPAFC | 0.66 ± 0.0083 |
| IACPPSVIFSPH | 0.713 ± 0.058 |
| IAEFRRDKIVKR | 0.706 ± 0.07 |

| Sequence | protein stability index |
| --- | --- |
| IAFFFLHIPPAF | 0.569 ± 0.076 |
| IAGKAIKNMTRR | 0.676 ± 0.052 |
| IAGRPSSGFPLL | 0.686 ± 0.066 |
| IALVFCPMNGRI | 0.686 ± 0.014 |
| IARENLNRSRFS | 0.6602 ± 0.0056 |
| IATDGARCACDP | 0.688 ± 0.022 |
| IATMSVAGGPRL | 0.677 ± 0.015 |
| ICGAGPKCCCSV | 0.635 ± 0.051 |
| ICIGRDISNQSC | 0.703 ± 0.021 |
| ICLPPVSDVLIR | 0.676 ± 0.0084 |
| ICVSGALMARAL | 0.6798 ± 0.0036 |
| IDFISSVLSYLS | 0.663 ± 0.013 |
| IDKRWVKKGGDK | 0.64 ± 0.071 |
| IDLGWSRWGALA | 0.662 ± 0.086 |
| IDPPSLCTPPPP | 0.635 ± 0.034 |
| IDSKSPTHPLHQ | 0.71 ± 0.059 |
| IDSSLERVRQHS | 0.677 ± 0.058 |
| IDYCWLPDGYQM | 0.683 ± 0.068 |
| IECKKIDKKIKE | 0.688 ± 0.035 |
| IEIGTEEGKCTT | 0.707 ± 0.053 |
| IEKKKIDNKVKS | 0.712 ± 0.079 |
| IEKYRKNKKTGK | 0.677 ± 0.016 |
| IENKKEKKIMIE | 0.6652 ± 0.0037 |
| IETQKNNKLRRL | 0.699 ± 0.015 |
| IEVSRRDLRIHL | 0.6949 ± 0.0032 |
| IEWGPITTLTQT | 0.718 ± 0.02 |

| Sequence | protein stability index |
| --- | --- |
| IFFFFHSPYFFS | 0.68 ± 0.018 |
| IFGCPEFFCFLL | 0.696 ± 0.061 |
| IFLLLHSPSSAS | 0.697 ± 0.014 |
| IFPVFHPPFVVI | 0.557 ± 0.05 |
| IFWGFSFRGWGC | 0.683 ± 0.015 |
| IFYTHRSLSGNL | 0.659 ± 0.036 |
| IGCSELSGLGGY | 0.769 ± 0.12 |
| IGCTRSREESRE | 0.689 ± 0.013 |
| IGFLGYTRSIRN | 0.617 ± 0.096 |
| IGGFGVRIYFGG | 0.627 ± 0.056 |
| IGLCGWVSGAAT | 0.7274 ± 0.0069 |
| IGLSPICAAAYT | 0.6515 ± 0.001 |
| IGTSGFFSSQAS | 0.743 ± 0.065 |
| IIKKKKKIKRNN | 0.683 ± 0.014 |
| IKACGLRSFIKS | 0.69 ± 0.059 |
| IKIKKKKKKRHR | 0.651 ± 0.059 |
| IKIRIAANRTKY | 0.63796 ± 0.00029 |
| IKKIEKANRKTK | 0.661 ± 0.034 |
| IKKKKKKESRSS | 0.693 ± 0.065 |
| IKKKKKKKQRKQ | 0.65 ± 0.069 |
| IKKKNRKERQKK | 0.678 ± 0.015 |
| IKKTKNKETKKT | 0.676 ± 0.045 |
| IKMKRMTKIKKK | 0.745 ± 0.049 |
| IKNIKKKKSKTE | 0.702 ± 0.065 |
| IKRLNNEKSSKA | 0.676 ± 0.035 |
